Laboratory results: patent US20080220446

T1: alkyl-β2gpi (reduced and alkylated β2-glycoprotein I), P02749
T1 chain: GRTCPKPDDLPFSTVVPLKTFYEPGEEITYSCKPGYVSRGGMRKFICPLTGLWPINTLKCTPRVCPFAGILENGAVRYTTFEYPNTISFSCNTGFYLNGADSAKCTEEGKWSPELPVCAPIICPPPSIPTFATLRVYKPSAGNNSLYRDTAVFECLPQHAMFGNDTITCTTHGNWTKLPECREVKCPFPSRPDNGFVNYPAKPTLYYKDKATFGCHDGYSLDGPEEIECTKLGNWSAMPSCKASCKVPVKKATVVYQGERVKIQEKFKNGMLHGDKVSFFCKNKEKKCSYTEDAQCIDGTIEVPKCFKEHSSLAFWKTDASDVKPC

T2: recombinant human β2-glycoprotein I (insect cells), P02749
T2 chain: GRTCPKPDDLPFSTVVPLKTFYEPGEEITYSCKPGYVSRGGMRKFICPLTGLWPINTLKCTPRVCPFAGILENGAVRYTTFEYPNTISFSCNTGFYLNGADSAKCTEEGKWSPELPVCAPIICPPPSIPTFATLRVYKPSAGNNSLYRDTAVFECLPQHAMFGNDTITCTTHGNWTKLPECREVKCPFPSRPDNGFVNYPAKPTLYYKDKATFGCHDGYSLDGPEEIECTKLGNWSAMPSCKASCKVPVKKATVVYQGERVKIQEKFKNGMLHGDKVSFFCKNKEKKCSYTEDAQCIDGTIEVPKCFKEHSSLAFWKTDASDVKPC

T3: β2GPI exposed to cardiolipin (CL), P02749
T3 chain: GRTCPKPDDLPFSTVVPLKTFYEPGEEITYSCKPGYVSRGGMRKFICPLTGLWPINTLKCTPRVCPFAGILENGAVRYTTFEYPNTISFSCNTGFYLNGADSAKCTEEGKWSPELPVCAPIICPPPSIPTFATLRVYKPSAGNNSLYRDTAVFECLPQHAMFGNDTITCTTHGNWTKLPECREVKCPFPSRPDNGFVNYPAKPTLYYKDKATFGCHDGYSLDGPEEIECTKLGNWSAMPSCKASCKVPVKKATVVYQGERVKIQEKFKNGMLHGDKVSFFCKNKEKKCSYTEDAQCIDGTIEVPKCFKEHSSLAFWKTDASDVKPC

T4: β2GPI purified from fresh human plasma, P02749
T4 chain: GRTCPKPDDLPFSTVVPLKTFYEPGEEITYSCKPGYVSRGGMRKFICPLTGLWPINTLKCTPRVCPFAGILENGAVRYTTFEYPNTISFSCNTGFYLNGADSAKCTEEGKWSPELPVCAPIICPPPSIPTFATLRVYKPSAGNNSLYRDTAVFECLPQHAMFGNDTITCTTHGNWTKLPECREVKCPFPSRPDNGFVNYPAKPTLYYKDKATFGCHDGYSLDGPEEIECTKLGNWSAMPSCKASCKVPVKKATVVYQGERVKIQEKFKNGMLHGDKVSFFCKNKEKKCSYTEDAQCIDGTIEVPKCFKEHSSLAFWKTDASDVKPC

B1: tissue-type plasminogen activator (tPA) (protein)
chain: SYQVICRDEKTQMIYQQHQSWLRPVLRSNRVEYCWCNSGRAQCHSVPVKSCSEPRCFNGGTCQQALYFSDFVCQCPEGFAGKCCEIDTRATCYEDQGISYRGTWSTAESGAECTNWNSSALAQKPYSGRRPDAIRLGLGNHNYCRNPDRDSKPWCYVFKAGKYSSEFCSTPACSEGNSDCYFGNGSAYRGTHSLTESGASCLPWNSMILIGKVYTAQNPSAQALGLGKHNYCRNPDGDAKPWCHVLKNRRLTWEYCDVPSCSTCGLRQYSQPQFRIKGGLFADIASHPWQAAIFAKHRRSPGERFLCGGILISSCWILSAAHCFQERFPPHHLTVILGRTYRVVPGEEEQKFEVEKYIVHKEFDDDTYDNDIALLQLKSDSSRCAQESSVVRTVCLPPADLQLPDWTECELSGYGKHEALSPFYSERLKEAHVRLYPSSRCTSQHLLNRTVTDNMLCAGDTRSGGPQANLHDACQGDSGGPLVCLNDGRMTLVGIISWGLGCGQKDVPGVYTKVTNYLDWIRDNMRP
B2: factor XII (purified human factor XII from plasma) (protein)
chain: IPPWEAPKEHKYKAEEHTVVLTVTGEPCHFPFQYHRQLYHKCTHKGRPGPQPWCATTPNFDQDQRWGYCLEPKKVKDHCSKHSPCQKGGTCVNMPSGPHCLCPQHLTGNHCQKEKCFEPQLLRFFHKNEIWYRTEQAAVARCQCKGPDAHCQRLASQACRTNPCLHGGRCLEVEGHRLCHCPVGYTGAFCDVDTKASCYDGRGLSYRGLARTTLSGAPCQPWASEATYRNVTAEQARNWGLGGHAFCRNPDNDIRPWCFVLNRDRLSWEYCDLAQCQTPTQAAPPTPVSPRLHVPLMPAQPAPPKPQPTTRTPPQSQTPGALPAKREQPPSLTRNGPLSCGQRLRKSLSSMTRVVGGLVALRGAHPYIAALYWGHSFCAGSLIAPCWVLTAAHCLQDRPAPEDLTVVLGQERRNHSCEPCQTLAVRSYRLHEAFSPVSYQHDLALLRLQEDADGSCALLSPYVQPVCLPSGAARPSETTLCQVAGWGHQFEGAEEYASFLQEAQVPFLSLERCSAPDVHGSSILPGMLCAGFLEGGTDACQGDSGGPLVCEDQAAERRLTLQGIISWGSGCGDRNKPGVYTDVAYYLAWIREHTVS

How the values were obtained:
[1] = biological target: T1, alkyl-β2gpi (reduced and alkylated …)
[2] = biological target: amyloid γ-globulins (denatured human γ-globulins)
[3] = biological target: endostatin (EntreMed, Inc.), P39060
[4] = biological target: heat/acid-denatured human glucagon, P01275
[5] = biological target: human coagulation factor VIII (FVIII) (Aafact), P00451
[6] = biological target: human glucagon (Glucagen), freshly dissolved, P01275
[7] = biological target: native murine serum albumin (nMSA), P07724
[8] = biological target: T2, recombinant human β2-glycoprotein I …
[9] = biological target: T3, β2GPI exposed to cardiolipin (CL), …
[10] = biological target: T4, β2GPI purified from fresh human plasma, …
[11] = biological target: human modified gelatin (Gelofusine)

human glucagon (Glucagen), freshly dissolved, P01275, sequence (P01275 53-81): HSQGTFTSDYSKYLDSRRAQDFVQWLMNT
endostatin (EntreMed, Inc.), P39060, sequence (P39060 whole entry, looked up): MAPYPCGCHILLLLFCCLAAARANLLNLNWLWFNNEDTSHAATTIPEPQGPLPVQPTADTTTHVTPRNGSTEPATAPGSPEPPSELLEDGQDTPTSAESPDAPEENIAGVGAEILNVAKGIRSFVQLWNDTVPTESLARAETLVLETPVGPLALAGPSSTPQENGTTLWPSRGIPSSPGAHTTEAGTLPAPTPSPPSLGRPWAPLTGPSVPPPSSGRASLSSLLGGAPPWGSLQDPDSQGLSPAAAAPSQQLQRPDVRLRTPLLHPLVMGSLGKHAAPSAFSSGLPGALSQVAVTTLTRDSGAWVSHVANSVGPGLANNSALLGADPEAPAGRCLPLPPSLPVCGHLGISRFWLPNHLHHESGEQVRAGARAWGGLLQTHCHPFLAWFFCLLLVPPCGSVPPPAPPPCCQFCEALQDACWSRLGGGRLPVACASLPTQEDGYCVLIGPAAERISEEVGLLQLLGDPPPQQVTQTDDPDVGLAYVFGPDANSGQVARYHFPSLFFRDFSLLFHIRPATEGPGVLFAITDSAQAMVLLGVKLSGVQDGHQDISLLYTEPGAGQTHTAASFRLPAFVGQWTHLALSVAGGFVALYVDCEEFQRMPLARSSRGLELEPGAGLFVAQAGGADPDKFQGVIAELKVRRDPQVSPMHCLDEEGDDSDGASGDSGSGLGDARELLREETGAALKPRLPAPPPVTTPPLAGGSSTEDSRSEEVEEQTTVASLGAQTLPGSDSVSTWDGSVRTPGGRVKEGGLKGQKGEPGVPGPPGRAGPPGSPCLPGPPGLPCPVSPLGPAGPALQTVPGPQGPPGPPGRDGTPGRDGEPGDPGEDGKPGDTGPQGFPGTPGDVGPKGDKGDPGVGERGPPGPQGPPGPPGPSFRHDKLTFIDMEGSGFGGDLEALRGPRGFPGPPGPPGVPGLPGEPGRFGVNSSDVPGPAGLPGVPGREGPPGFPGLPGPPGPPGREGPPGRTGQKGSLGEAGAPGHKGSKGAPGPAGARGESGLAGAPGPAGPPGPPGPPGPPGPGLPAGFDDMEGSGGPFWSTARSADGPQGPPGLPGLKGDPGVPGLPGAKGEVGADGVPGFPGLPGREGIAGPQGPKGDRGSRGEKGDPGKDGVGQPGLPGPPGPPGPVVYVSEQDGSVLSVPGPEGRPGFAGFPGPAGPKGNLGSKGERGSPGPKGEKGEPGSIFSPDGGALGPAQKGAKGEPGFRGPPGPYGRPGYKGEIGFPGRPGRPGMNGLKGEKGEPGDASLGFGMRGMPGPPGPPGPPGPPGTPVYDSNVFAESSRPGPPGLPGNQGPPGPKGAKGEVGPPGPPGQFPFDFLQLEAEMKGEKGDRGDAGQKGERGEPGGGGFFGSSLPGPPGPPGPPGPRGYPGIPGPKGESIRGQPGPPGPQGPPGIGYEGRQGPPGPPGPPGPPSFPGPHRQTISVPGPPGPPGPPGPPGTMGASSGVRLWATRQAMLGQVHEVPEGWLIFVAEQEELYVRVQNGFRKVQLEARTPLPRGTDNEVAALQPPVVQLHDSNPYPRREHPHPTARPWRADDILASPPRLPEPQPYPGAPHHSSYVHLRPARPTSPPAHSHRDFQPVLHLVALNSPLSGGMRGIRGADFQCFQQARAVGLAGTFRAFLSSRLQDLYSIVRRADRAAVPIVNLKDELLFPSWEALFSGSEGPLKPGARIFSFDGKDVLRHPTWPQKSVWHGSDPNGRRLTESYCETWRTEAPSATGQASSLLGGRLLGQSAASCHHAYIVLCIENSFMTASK
human coagulation factor VIII (FVIII) (Aafact), P00451, sequence (P00451 whole entry, looked up): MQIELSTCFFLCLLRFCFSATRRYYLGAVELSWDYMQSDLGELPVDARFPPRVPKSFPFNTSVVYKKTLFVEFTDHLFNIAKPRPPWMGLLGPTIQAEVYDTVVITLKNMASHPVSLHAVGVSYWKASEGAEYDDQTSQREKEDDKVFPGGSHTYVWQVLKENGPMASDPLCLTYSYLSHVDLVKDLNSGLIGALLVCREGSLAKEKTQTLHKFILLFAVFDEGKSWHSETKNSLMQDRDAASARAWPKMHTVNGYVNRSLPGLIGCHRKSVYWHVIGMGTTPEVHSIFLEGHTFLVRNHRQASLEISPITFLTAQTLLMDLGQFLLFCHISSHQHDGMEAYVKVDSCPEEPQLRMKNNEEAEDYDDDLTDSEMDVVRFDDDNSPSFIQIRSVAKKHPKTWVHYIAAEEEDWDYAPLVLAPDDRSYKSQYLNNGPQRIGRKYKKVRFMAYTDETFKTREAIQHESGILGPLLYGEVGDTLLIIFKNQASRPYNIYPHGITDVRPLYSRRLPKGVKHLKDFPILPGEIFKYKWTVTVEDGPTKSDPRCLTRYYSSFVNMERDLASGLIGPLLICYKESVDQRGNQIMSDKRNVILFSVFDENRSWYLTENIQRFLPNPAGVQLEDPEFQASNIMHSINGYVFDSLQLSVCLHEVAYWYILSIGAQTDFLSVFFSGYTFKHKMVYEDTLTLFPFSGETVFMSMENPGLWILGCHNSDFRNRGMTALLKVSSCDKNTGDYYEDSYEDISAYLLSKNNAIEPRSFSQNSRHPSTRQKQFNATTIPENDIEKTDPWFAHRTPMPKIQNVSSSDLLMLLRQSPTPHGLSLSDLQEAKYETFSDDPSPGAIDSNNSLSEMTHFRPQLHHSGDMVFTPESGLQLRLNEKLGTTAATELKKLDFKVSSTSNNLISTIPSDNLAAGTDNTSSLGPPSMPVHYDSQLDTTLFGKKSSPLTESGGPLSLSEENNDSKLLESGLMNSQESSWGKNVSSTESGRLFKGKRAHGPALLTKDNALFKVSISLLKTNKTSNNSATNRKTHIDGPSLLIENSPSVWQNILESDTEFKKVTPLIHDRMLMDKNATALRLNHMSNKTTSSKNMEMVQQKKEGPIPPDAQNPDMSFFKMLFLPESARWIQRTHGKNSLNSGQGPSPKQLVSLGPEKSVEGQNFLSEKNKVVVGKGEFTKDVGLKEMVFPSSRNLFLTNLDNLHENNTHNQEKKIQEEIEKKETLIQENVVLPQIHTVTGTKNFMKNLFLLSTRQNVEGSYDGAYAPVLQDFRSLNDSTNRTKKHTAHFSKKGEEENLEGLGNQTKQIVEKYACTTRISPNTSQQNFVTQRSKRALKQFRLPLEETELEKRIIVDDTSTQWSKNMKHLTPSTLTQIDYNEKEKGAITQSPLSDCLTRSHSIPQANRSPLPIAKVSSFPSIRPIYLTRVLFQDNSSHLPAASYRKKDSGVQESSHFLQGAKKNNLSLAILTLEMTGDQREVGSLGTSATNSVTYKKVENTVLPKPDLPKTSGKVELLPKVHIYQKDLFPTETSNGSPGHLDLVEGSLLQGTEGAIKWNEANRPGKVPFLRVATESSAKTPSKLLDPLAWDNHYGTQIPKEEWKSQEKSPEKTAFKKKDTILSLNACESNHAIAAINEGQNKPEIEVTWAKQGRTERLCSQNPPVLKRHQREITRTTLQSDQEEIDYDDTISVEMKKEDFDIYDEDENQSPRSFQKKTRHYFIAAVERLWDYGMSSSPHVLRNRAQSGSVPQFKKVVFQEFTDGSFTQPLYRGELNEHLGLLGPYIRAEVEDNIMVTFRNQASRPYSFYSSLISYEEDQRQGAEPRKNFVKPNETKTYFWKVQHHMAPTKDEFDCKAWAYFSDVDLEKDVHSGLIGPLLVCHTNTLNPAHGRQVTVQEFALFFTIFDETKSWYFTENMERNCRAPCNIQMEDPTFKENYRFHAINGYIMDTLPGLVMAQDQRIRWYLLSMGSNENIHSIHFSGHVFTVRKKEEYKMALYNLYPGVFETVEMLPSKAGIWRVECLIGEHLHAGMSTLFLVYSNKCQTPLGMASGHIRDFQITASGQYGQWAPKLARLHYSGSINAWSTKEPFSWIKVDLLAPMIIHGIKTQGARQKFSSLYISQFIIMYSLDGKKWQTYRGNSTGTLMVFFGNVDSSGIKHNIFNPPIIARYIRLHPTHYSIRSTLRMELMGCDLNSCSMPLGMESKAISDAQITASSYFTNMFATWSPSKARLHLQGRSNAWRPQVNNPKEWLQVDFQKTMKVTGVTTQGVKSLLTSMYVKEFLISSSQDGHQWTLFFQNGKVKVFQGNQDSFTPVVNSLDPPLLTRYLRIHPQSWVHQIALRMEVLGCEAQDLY
native murine serum albumin (nMSA), P07724, sequence (P07724 25-608): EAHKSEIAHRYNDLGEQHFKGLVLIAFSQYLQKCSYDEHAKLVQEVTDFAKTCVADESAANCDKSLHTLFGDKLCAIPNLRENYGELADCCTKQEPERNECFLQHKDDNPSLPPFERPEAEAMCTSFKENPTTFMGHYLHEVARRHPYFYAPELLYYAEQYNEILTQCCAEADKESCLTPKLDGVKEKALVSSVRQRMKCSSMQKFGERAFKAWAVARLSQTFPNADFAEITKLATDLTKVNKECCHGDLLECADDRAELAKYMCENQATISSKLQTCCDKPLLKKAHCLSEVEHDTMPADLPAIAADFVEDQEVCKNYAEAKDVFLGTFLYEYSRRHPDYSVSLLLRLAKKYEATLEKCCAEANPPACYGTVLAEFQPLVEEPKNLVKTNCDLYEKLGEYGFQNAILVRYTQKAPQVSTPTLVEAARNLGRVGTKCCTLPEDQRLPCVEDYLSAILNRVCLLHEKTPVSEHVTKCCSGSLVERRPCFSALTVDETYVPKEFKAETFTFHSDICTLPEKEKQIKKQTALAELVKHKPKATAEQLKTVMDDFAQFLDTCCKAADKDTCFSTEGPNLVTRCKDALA

| Protein | ability to activate tPA/plasminogen [1] | tPA-mediated activation of Plg (chromogenic Plg-activation assay) [2] | tPA activating properties (Plg-activation assay) [3] | tPA activation [4] | tPA activation, Max. Activation (%) (tPA-dependent plasminogen activation, % of standardized positive control) [5] | tPA activating potential [6] | tPA activation, Max. Activation (%) (tPA-dependent plasminogen activation, % of standardized positive control) [6] | stimulation of tPA activation [7] | tPA-mediated conversion of Plg to Pls (substrate S-2251) [8] | generation of plasmin from tPA/plasminogen [9] | tPA-mediated conversion of Plg to Pls (substrate S-2251) [10] | factor XII activation (chromogenic kallikrein assay) [11] |
| --- | --- | --- | --- | --- | --- | --- | --- | --- | --- | --- | --- | --- |
| B1 | Alkylation of β2gpi results in amyloid-like properties when the ability to activate tPA/plasminogen is considered | Centrifugation had no effect on the stimulatory effect of Hb-AGE and amyloid γ-globulins on tPA-mediated activation of Plg | the absence of tPA activating properties in 100 µg ml^-1 endostatin | a potent activator of tPA was obtained | 4.22 | at high glucagon concentration, also native glucagon had some tPA activating potential | 11.2 | also native MSA enhanced ThT fluorescence to some extent, but this was not reflected by stimulation of tPA activation | Recombinant β2GPI, but not β2GPI purified from fresh plasma stimulate tPA-mediated conversion of Plg to Pls | Generation of plasmin from tPA/plasminogen is accelerated when β2gpi is exposed to cardiolipin (CL-β2gpi) | Recombinant β2GPI, but not β2GPI purified from fresh plasma stimulate tPA-mediated conversion of Plg to Pls | – |
| B2 | – | – | – | – | – | – | – | – | – | – | – | Only gelatin kept at 37 °C activated factor XII |
